According to article PMC7229829, “Distortion of double-stranded DNA structure by the binding of the restriction DNA glycosylase R.PabI” (Nucleic Acids Research, 2020):

Biological target: the molecule itself
Test: SEC; Superdex 200 HR 10/30; 2 μM as a dimer loaded; 10 mM MES pH 6.0, 500 mM NaCl; oligomeric state estimated against standard proteins

Row | Protein | stoichiometry N | binding result
1 | R.PabI(Y68F-K154A) mutant (enzyme, Pyrococcus abyssi, UniProt Q9V2B6 8-226, looked up, R.PabI, restriction DNA glycosylase of Pyrococcus abyssi, residues 8-226, cloned into pET26b; Mr = 25 287 printed; the vector pET26b can add a C-terminal His tag, but the printed Mr fits residues 8-226 without a tag; also called Y68F-K154A double mutant of R.PabI; source: E. coli Rosetta(DE3)pLysS, purified (heat 80°C, TOYOPEARL AF-Heparin, Mono S)) EASVSFENGKIVVRLPITRPTSKIRVKKIENGVGIPVSTRKKSFPSDENLRDYYIEWQISFARDGKYDYELSRMVRLAHEHGILTYNDIYELLKFADDVKSYLEDKGIRRESTNEELYGFNIYEDVYPVAKKELPSGEFIGIVLKHAQRAVGYQSMVYVCIPLTNVEPSLAGRVARRNEVVKYEVPVDLMKELLKAFIIASETHKNDIVKFLRSIIGTS | 2 | –
2 | R.PabI(Y68F-P27G) mutant (enzyme, Pyrococcus abyssi, UniProt Q9V2B6 8-226, looked up, R.PabI, restriction DNA glycosylase of Pyrococcus abyssi, residues 8-226, cloned into pET26b; Mr = 25 304 printed; Called a dimer in the methods (loaded '2 μM as a dimer'); also called Y68F-P27G double mutant; source: E. coli Rosetta(DE3)pLysS, purified (heat 80°C, TOYOPEARL AF-Heparin, Mono S)) EASVSFENGKIVVRLPITRGTSKIRVKKIENGVGIPVSTRKKSFPSDENLRDYYIEWQISFARDGKYDYELSRMVRLAHEHGILTYNDIYELLKFADDVKSYLEDKGIRRESTNEELYGFNIYEDVYPVAKKELPSGEFIGIVLKHKQRAVGYQSMVYVCIPLTNVEPSLAGRVARRNEVVKYEVPVDLMKELLKAFIIASETHKNDIVKFLRSIIGTS | – | binds
3 | R.PabI(Y68F) mutant (enzyme, Pyrococcus abyssi, UniProt Q9V2B6 8-226, looked up, R.PabI, restriction DNA glycosylase of Pyrococcus abyssi, residues 8-226, cloned into pET26b; Mr = 25 344 printed; Called a dimer in the methods (loaded '2 μM as a dimer'); source: E. coli Rosetta(DE3)pLysS, purified (heat 80°C, TOYOPEARL AF-Heparin, Mono S)) EASVSFENGKIVVRLPITRPTSKIRVKKIENGVGIPVSTRKKSFPSDENLRDYYIEWQISFARDGKYDYELSRMVRLAHEHGILTYNDIYELLKFADDVKSYLEDKGIRRESTNEELYGFNIYEDVYPVAKKELPSGEFIGIVLKHKQRAVGYQSMVYVCIPLTNVEPSLAGRVARRNEVVKYEVPVDLMKELLKAFIIASETHKNDIVKFLRSIIGTS | – | binds
4 | R.PabI(Y68F-P27G-T28G) mutant (enzyme, Pyrococcus abyssi, UniProt Q9V2B6 8-226, looked up, R.PabI, restriction DNA glycosylase of Pyrococcus abyssi, residues 8-226, cloned into pET26b; Mr = 25 260 printed; Called a dimer in the methods (loaded '2 μM as a dimer'); also called Y68F-P27G-T28G triple mutant; source: E. coli Rosetta(DE3)pLysS, purified (heat 80°C, TOYOPEARL AF-Heparin, Mono S)) EASVSFENGKIVVRLPITRGGSKIRVKKIENGVGIPVSTRKKSFPSDENLRDYYIEWQISFARDGKYDYELSRMVRLAHEHGILTYNDIYELLKFADDVKSYLEDKGIRRESTNEELYGFNIYEDVYPVAKKELPSGEFIGIVLKHKQRAVGYQSMVYVCIPLTNVEPSLAGRVARRNEVVKYEVPVDLMKELLKAFIIASETHKNDIVKFLRSIIGTS | – | binds
5 | R.PabI(K154A) mutant (enzyme, Pyrococcus abyssi, UniProt Q9V2B6 8-226, looked up, R.PabI, restriction DNA glycosylase of Pyrococcus abyssi, residues 8-226, cloned into pET26b; Mr = 25 303 printed; Called a dimer in the methods (loaded '2 μM as a dimer'); PDB 3WAZ (cited) holds R.PabI(K154A) with product dsDNA; also called K154A mutant of R.PabI; source: E. coli Rosetta(DE3)pLysS, purified (heat 80°C, TOYOPEARL AF-Heparin, Mono S)) EASVSFENGKIVVRLPITRPTSKIRVKKIENGVGIPVSTRKKSFPSDENLRDYYIEWQISYARDGKYDYELSRMVRLAHEHGILTYNDIYELLKFADDVKSYLEDKGIRRESTNEELYGFNIYEDVYPVAKKELPSGEFIGIVLKHAQRAVGYQSMVYVCIPLTNVEPSLAGRVARRNEVVKYEVPVDLMKELLKAFIIASETHKNDIVKFLRSIIGTS | – | binds
6 | R.PabI(K154A-P27G-T28G) mutant (enzyme, Pyrococcus abyssi, UniProt Q9V2B6 8-226, looked up, R.PabI, restriction DNA glycosylase of Pyrococcus abyssi, residues 8-226, cloned into pET26b; Mr = 25 219 printed; Called a dimer in the methods (loaded '2 μM as a dimer'); source: E. coli Rosetta(DE3)pLysS, purified (heat 80°C, TOYOPEARL AF-Heparin, Mono S)) EASVSFENGKIVVRLPITRGGSKIRVKKIENGVGIPVSTRKKSFPSDENLRDYYIEWQISYARDGKYDYELSRMVRLAHEHGILTYNDIYELLKFADDVKSYLEDKGIRRESTNEELYGFNIYEDVYPVAKKELPSGEFIGIVLKHAQRAVGYQSMVYVCIPLTNVEPSLAGRVARRNEVVKYEVPVDLMKELLKAFIIASETHKNDIVKFLRSIIGTS | – | binds
